Reference: US20210388084A1 (JJP BIOLOGICS SP Z O O, published 2021)
Residue numbers refer to the chain shown, from its start. Each block holds one binder with its values, some of them ahead of it.

Experiments:
[1] = biological target: T1, membrane-bound full-length human CD89 (human, UniProt P24071 22-287); experiment: FACS, HEK293F-huCD89, 4C +NaN3, IgA then Ab 10 ug/mL; pre-bound heat-aggr serum IgA
T1 construct: on stably or transiently transfected HEK293F cells; also called FcalphaRI; huCD89
Method: (§1) After extensive washing in PBS/BSA/NaN₃, 1:200 diluted PE-conjugated streptavidin (Jackson ImmunoResearch) was added, and incubated for 30 minutes at 4° C. After extensive washing in PBS/BSA/NaN₃, cells were fixed in 2% formaldehyde in PBS/BSA/NaN₃ for 30 minutes at 4° C.

[2] = biological target: T1, membrane-bound full-length human CD89; experiment: FACS, HEK293F-huCD89, unlabeled Ab 10 ug/mL first; competitor A3-PE
Method: (§2) Then, 10 μL/tube (ie, 0.1×10⁶ cells) of these cells were incubated with or without 100 μL purified mouse anti-human CD89 antibody at 10 μg/mL (in PBS/BSA/NaN₃) for 30 minutes at 4° C. […] After extensive washing in PBS/BSA/NaN₃, cells were fixed in 2% formaldehyde in PBS/BSA/NaN₃ for 30 minutes at 4° C.

[3] = biological target: T2, chimeric human/cynomolgus monkey CD89-hotspots (human/cynomolgus monkey chimera, UniProt P24071 22-287); experiment: FACS, transiently transfected HEK293F; - = no binding
T2 construct: also called ΔThr58, Gln59; ΔArg73, Arg74, Lys76
T2 chain: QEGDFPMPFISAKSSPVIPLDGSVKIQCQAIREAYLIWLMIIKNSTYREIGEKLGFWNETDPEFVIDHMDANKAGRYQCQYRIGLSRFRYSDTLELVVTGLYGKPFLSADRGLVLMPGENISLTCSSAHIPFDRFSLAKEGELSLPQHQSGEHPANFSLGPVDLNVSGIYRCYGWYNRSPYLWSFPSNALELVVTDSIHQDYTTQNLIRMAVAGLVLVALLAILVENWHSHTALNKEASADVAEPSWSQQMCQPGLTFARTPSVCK
Method: (§3) After 48 hours, the binding of CD89/IgA blocking mouse anti-human CD89 antibodies to aforementioned chimeric human CD89/cynomolgus monkey CD89 constructs on transfected cells was analyzed by FACS analysis. To this end, transient transfected HEK293F cells were put at 10×10⁶ cells/mL in ice-chilled phosphate-buffered saline containing 0.1% BSA (Sigma)/0.05% NaN₃ (PBS/BSA/NaN₃) supplemented with 50 μg/mL human IgGs (blocking Fcγ receptors; Sigma) for 10 minutes at 4° C. Then, 10 μL/tube (ie, 0.1×10⁶ cells) of these cells were incubated with or without 100 μL purified mouse anti-human CD89 antibody at 10 μg/mL (in PBS/BSA/NaN₃) for 30 minutes at 4° C. […] After extensive washing in PBS/BSA/NaN₃, cells were subsequently incubated with 1:200 diluted PE-conjugated goat anti-mouse IgG Fey-specific antibodies (Jackson ImmunoResearch) for 30 minutes at 4° C. After extensive washing in PBS/BSA/NaN₃, cells were fixed in 2% formaldehyde in PBS/BSA/NaN₃ for 30 minutes at 4° C.

[4] = biological target: T1, membrane-bound full-length human CD89; experiment: FACS, HEK293F-huCD89, unlabeled Ab 10 ug/mL first; competitor A59-PE
Method: as §2

[5] = biological target: T1, membrane-bound full-length human CD89; experiment: FACS, HEK293F-huCD89, 4C +NaN3, Ab 10 ug/mL then IgA; competitor heat-aggr serum IgA
Method: To mimic human IgA immune complexes, human (serum-derived) IgA (Bethyl Laboratories) was heated at 63° C. for 30 minutes, and cooled down to RT followed by centrifugation at 4° C. 12000×g for 2 minutes to remove any insoluble protein precipitation.
Then, 10 μL/tube (ie, 0.1×10⁶ cells) of these cells were incubated with or without 50 μL purified mouse anti-human CD89 antibody at 20 μg/mL (in PBS/BSA/NaN₃) for 30 minutes at 4° C.

[6] = biological target: T3, chimeric human/cynomolgus monkey CD89-I (human/cynomolgus monkey chimera, UniProt P24071 22-287); experiment: FACS, transiently transfected HEK293F, 10 ug/mL; ++ strong, + intermediate, -/+ weak
T3 construct: also called ΔGln22-Lys46 human EC1-CD89; I (22-46)
T3 chain: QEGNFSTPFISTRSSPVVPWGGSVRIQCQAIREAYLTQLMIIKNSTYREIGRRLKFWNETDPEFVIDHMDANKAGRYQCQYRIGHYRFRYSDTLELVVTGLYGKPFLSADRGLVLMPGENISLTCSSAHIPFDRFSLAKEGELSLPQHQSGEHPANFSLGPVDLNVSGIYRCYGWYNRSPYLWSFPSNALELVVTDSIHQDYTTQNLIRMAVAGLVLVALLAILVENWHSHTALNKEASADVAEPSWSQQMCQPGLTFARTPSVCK

[7] = biological target: T4, chimeric human/cynomolgus monkey CD89-II (human/cynomolgus monkey chimera, UniProt P24071 22-287); experiment: as above
T4 construct: also called ΔIle47-Ile71 human EC1-CD89; II (47-71)
T4 chain: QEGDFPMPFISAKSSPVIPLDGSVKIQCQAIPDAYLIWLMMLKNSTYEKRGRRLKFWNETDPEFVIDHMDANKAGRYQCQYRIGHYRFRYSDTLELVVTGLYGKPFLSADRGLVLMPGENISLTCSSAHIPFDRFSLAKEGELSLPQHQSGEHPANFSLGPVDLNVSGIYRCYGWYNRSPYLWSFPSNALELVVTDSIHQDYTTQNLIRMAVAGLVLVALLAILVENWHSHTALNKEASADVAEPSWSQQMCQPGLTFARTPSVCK

[8] = biological target: T5, chimeric human/cynomolgus monkey CD89-IV (human/cynomolgus monkey chimera, UniProt P24071 22-287); experiment: as above
T5 construct: also called ΔArg97-Gly121 human EC1-CD89
T5 chain: T2 chain with I37T, W38Q, E52R, K53R, G55K, Q78R, Q80R

[9] = biological target: T6, chimeric human/cynomolgus monkey CD89-III (human/cynomolgus monkey chimera, UniProt P24071 22-287); experiment: as above
T6 construct: also called ΔGly72-Gly96 human EC1-CD89; III (72-96)
T6 chain: T2 chain with I37T, W38Q, G51D, E59D, D61T, L85H, S86Y

[10] = biological target: T1, membrane-bound full-length human CD89; experiment: FACS, HEK293F-huCD89, half-maximum binding
Method: Then, 10 μL/tube (ie, 0.1×10⁶ cells) of these cells were incubated with or without 100 μL titrated (in PBS/BSA/NaN₃) purified chimeric mouse/human anti-human CD89 antibody/tube for 30 minutes at 4° C. […] After extensive washing in PBS/BSA/NaN₃, cells were subsequently incubated with 1:200 diluted PE-conjugated goat anti-human IgG Fey-specific antibodies (Jackson ImmunoResearch) for 30 minutes at 4° C. After extensive washing in PBS/BSA/NaN₃, cells were fixed in 2% formaldehyde in PBS/BSA/NaN₃ for 30 minutes at 4° C.

[11] = biological target: T7, chimeric bovine EC1-Fcγ2R/human EC2-CD89 (bovine/human chimera); experiment: FACS, transiently transfected HEK293F
T7 chain: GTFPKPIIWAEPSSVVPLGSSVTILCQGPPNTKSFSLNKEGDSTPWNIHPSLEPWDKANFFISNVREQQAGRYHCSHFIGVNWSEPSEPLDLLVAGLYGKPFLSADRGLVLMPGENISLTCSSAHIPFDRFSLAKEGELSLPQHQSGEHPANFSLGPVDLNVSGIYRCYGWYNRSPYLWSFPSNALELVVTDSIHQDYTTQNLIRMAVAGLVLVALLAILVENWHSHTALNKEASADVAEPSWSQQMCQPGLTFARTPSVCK
Method: After 48 hours and/or 72 hours, the binding of CD89/IgA blocking mouse anti-human CD89 antibodies to aforementioned chimeric human/bovine receptors on transfected cells was analyzed by FACS analysis. To this end, transient transfected HEK293F cells were put at 10×10⁶ cells/mL in ice-chilled phosphate-buffered saline containing 0.1% BSA (Sigma)/0.05% NaN₃ (PBS/BSA/NaN₃) supplemented with 50 μg/mL human IgGs (blocking Fcγ receptors; Sigma) for 10 minutes at 4° C. Then, 10 μL/tube (ie, 0.1×10⁶ cells) of these cells were incubated with or without 100 μL purified mouse anti-human CD89 antibody at 10 μg/mL (in PBS/BSA/NaN₃) for 30 minutes at 4° C. […] After extensive washing in PBS/BSA/NaN₃, cells were subsequently incubated with 1:200 diluted PE-conjugated goat anti-mouse IgG Fey-specific antibodies (Jackson ImmunoResearch) for 30 minutes at 4° C. After extensive washing in PBS/BSA/NaN₃, cells were fixed in 2% formaldehyde in PBS/BSA/NaN₃ for 30 minutes at 4° C.

[12] = biological target: T1, membrane-bound full-length human CD89; experiment: FACS, HEK293F-huCD89, 24 h 37C no NaN3, Ab 10 ug/mL then IgA; competitor heat-aggr serum IgA
Method: as §1

[13] = biological target: T1, membrane-bound full-length human CD89; experiment: FACS, HEK293F-huCD89, 24 h 37C no NaN3, IgA then Ab 10 ug/mL; pre-bound heat-aggr serum IgA
Method: as §1

[14] = biological target: T8, recombinant C-terminal polyhistidine-tagged human (extracellular) CD89 (human, UniProt P24071 22-227); experiment: ELISA, coated rhuCD89, half-maximum binding
T8 construct: extracellular domain; bought (Sino Biological); also called rhuCD89
Method: After extensive washing with PBS/0.05% Tween 20, plates were blocked with PBS/0.05% Tween 20/1% BSA (Roche) for 1 hour at RT. Subsequently, plates were incubated with 50 μL titrated (in block buffer) purified mouse anti-human CD89 antibody/well for 1 hour at RT. […] After extensive washing in PBS/0.05% Tween 20, binding of antibodies on rhuCD89 was determined with 1:5,000 diluted horseradish peroxidase (HRP)-conjugated goat anti-mouse IgG Fey-specific antibodies (Jackson ImmunoResearch) for 1 hour at RT, followed by a ready-to-use solution of TMB substrate (Invitrogen) for colorimetric detection.
After extensive washing with PBS/0.05% Tween 20, plates were blocked with PBS/0.05% Tween 20/1% BSA (Roche) for 1 hour at RT. Subsequently, plates were incubated with and without 50 μL titrated (in block buffer) purified chimeric mouse/human anti-human CD89 antibody/well for 1 hour at RT. After extensive washing in PBS/0.05% Tween 20, binding of antibodies on rhuCD89 was determined with 1:5,000 diluted horseradish peroxidase (HRP)-conjugated goat anti-human IgG Fey-specific antibodies (Jackson ImmunoResearch) for 1 hour at RT, followed by a ready-to-use solution of TMB substrate (Invitrogen) for colorimetric detection.

[15] = biological target: T1, membrane-bound full-length human CD89; experiment: FACS, HEK293F-huCD89, 4C +NaN3, Ab 10 ug/mL then IgA; competitor non-aggr serum IgA
Method: Then, 10 μL/tube (ie, 0.1×10⁶ cells) of these cells were incubated with or without 50 μL purified mouse anti-human CD89 antibody at 20 μg/mL (in PBS/BSA/NaN₃) for 30 minutes at 4° C. […] After extensive washing in PBS/BSA/NaN₃, 1:200 diluted PE-conjugated streptavidin (Jackson ImmunoResearch) was added, and incubated for 30 minutes at 4° C. After extensive washing in PBS/BSA/NaN₃, cells were fixed in 2% formaldehyde in PBS/BSA/NaN₃ for 30 minutes at 4° C.

[16] = biological target: T1, membrane-bound full-length human CD89; experiment: FACS, HEK293F-huCD89, unlabeled Ab 10 ug/mL first; competitor MIP8a-PE
Method: as §2

[17] = biological target: T4, chimeric human/cynomolgus monkey CD89-II; experiment: FACS, transiently transfected HEK293F; - = no binding
Method: as §3

[18] = biological target: T2, chimeric human/cynomolgus monkey …; experiment: FACS, transiently transfected HEK293F, 10 ug/mL; ++ strong, + intermediate, -/+ weak
[19] = biological target: T1, membrane-bound full-length human CD89; experiment: FACS, HEK293F-huCD89, 4C +NaN3, IgA then Ab 10 ug/mL; pre-bound non-aggr serum IgA
Method: After this (ie, without washing), 50 μL purified mouse anti-human CD89 antibody at 20 μg/mL (in PBS/BSA/NaN₃) was added to these cells, and incubated for another 30 minutes at 4° C. […] After extensive washing in PBS/BSA/NaN₃, 1:200 diluted PE-conjugated streptavidin (Jackson ImmunoResearch) was added, and incubated for 30 minutes at 4° C. After extensive washing in PBS/BSA/NaN₃, cells were fixed in 2% formaldehyde in PBS/BSA/NaN₃ for 30 minutes at 4° C.

[20] = biological target: T1, membrane-bound full-length human CD89; experiment: FACS, HEK293F-huCD89, 24 h 37C no NaN3, IgA then Ab 10 ug/mL; pre-bound non-aggr serum IgA
Method: as §1

[21] = biological target: T1, membrane-bound full-length human CD89; experiment: FACS, HEK293F-huCD89, 24 h 37C no NaN3, Ab 10 ug/mL then IgA; competitor non-aggr serum IgA
Method: as §1

percent IgA binding [1]: 76 to 125% | % blocking of A3-PE binding [2]: < 25% | binding result [3]: no binding (tested: 10 µg/mL) | % blocking of A59-PE binding [4]: < 25% | percent IgA binding [5]: 0 to 25% | binding result [6]: binds | binding result [7]: binds | binding result [8]: binds | binding result [9]: binds | EC50 [10]: 1.62 µg/mL | binding result [11]: no binding (tested: 10 µg/mL) | percent IgA binding (remaining) [12]: 76 to 125% | percent IgA binding (remaining) [13]: 76 to 125% | EC50 [14]: 0.119 µg/mL | percent IgA binding [15]: 0 to 25% | % blocking of MIP8a-PE binding [16]: < 25%
B1: mouse anti-human CD89-specific antibody 16D6 (antibody, mouse IgG1, V domains shown)
VH: QVQLQQSGAELMKPGASVKISCKATGYTFSTYWIEWVKQRPGHGLEWIGEILPGSGSANYNEKFKGKATFTADTSSNTAYMQLSSLTFEDSAVYYCAKGFGSPYYYAMDYWGQGTSVTVSS
VL: EIVLTQSPALMAASPGEKVTITCSVSSSISSSNLHWYQQKSETSPKPWIYGTSKLASGVPVRFSGSGSGTSYSLTISNMEAEDAATYYCQQWSSFPLTFGGGTKLEIK
notes: also called 16D16

% blocking of A3-PE binding [2]: < 25% | binding result [17]: no binding (tested: 10 µg/mL) | % blocking of A59-PE binding [4]: < 25% | percent IgA binding [5]: 0 to 25% | binding result [6]: binds | binding result [18]: binds | binding result [8]: binds | binding result [9]: binds | percent IgA binding [19]: 26 to 50% | EC50 [10]: 0.484 µg/mL | percent IgA binding (remaining) [20]: 0 to 25% | binding result [11]: no binding (tested: 10 µg/mL) | percent IgA binding (remaining) [12]: 0 to 25% | percent IgA binding (remaining) [13]: 0 to 25% | EC50 [14]: 0.029 µg/mL | percent IgA binding (remaining) [21]: 0 to 25% | percent IgA binding [15]: 0 to 25% | % blocking of MIP8a-PE binding [16]: > 90%
B2: mouse anti-human CD89-specific antibody 30C7 (antibody, mouse IgG1, V domains shown)
VH: QVQLQQSGPELVRPGVSVKISCKGSGYTFTDYVMHWVKQSHAKSLEWIGVISTYSGNTNYNQKFKGKATMTVDKSSSTAYMELARLTSEDSAIYYCARESDGYYFDYWGQGTTLTVSS
VL: DIVMSQSPSSLAVSAGEKVTMSCKSSQSLLNSRTRKNYLAWYQQKPGQSPKLLIYWASTRESGVPDRFTGSGSGTDFTLTISSVQAEDLAVYYCKQSYNLMYTFGGGTKLEIK
